± gives the uncertainty stated by the source.
Assay: amyloid nucleation score (Sup35N fusion, yeast selection) (log enrichment); library NNK3; higher = more nucleation; inactive = no reads after selection
Outline: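 The nucleation score is the DiMSum log enrichment of output over input reads, centred on the mode score of non-aggregating sequences. Only sequences with 100 or more input reads were scored, using Illumina sequencing of input and output plasmid inserts. Psi-negative yeast expressing Sup35N fused to peptides of 20 random codons were induced 24 hours with 100 μM copper sulfate and grown 7 days at 30°C on medium lacking adenine and uracil.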

| Substance | amyloid nucleation score |
| --- | --- |
| FCRLWVRVSSDTFYYSFSGN | 0.537 ± 0.47 |
| FCRSVLTLKKKLMFYTLRHC | inactive |
| FCSFEVRGCY | 0.346 ± 0.2 |
| FCSVIFLISIYCTRFSLVYD | inactive |
| FCVPKCYSHWYLVFS | 1.03 ± 0.12 |
| FDACRFHVHLRYLFNNRYMG | inactive |
| FDAFM | inactive |
| FDDATEKFIS | inactive |
| FDFASFGKWVVVRFKCKTFT | inactive |
| FDFTGYLKCLKCTSSCTMVL | inactive |
| FDHPFICIKPRATRREAWLT | inactive |
| FDLETSLL | inactive |
| FDLVNWYFQRNIVLRQSCCY | inactive |
| FDMTL | inactive |
| FDPYFVFHNWVLYWFRVFTF | inactive |
| FDSKVWSAQRVRSTRLLSLG | inactive |
| FDTWFLRFRTNDVYLKVFFY | inactive |
| FDVKDWPSNNWRSLGNSRVC | inactive |
| FDVRDRSRIGLSMTITWMKI | inactive |
| FDYSIGL | inactive |
| FEERHCGANWFGSYVIGRWR | 0.798 ± 0.21 |
| FEFYTMWSIWARVLFPLKIY | inactive |
| FELTVLSSMVAIFL | 1.61 ± 0.089 |
| FENSLFYTKVMDPCSFVWYW | inactive |

| Substance | amyloid nucleation score |
| --- | --- |
| FESSGAGRFRSIWYGYMRVF | inactive |
| FEVIFYSGYAYLACPRRQCH | inactive |
| FFFVDMYWSDCLKDLLL | inactive |
| FFKICFRAKYIGNLSPLLK | inactive |
| FFLAGLFCAISV | inactive |
| FFLNLKDMFDHAL | inactive |
| FFLYLSKRLCVFCRCTYLGL | inactive |
| FFNKREKDVFSNHRQYGYWN | inactive |
| FFPFPKFWAGIVIAFY | inactive |
| FFRRSRYEYKSFGVNNVMNG | inactive |
| FFSAPMNEVKTGTILKGFVC | inactive |
| FFSASQRVAY | inactive |
| FFVIRLNPTSLNCVFSWYLL | inactive |
| FFVSDKLVFSNTLLQKNKSP | 0.881 ± 0.19 |
| FFVVC | inactive |
| FFWECYRQINCSINW | inactive |
| FGAAFQNYVKFPVPKMFTCH | inactive |
| FGADSDQHLRRLLGAEGWCR | inactive |
| FGANHKQVSWWDRMLSGTVR | inactive |
| FGEFKDCQGFSKF | inactive |
| FGEYVIRMSNCTLPKIMVIP | inactive |
| FGFFWP | inactive |
| FGQYWKRCTTCLCGWPTGIG | inactive |
| FGRYPMYIASLITNSKVFGC | -0.709 ± 0.41 |

| Substance | amyloid nucleation score |
| --- | --- |
| FGSGRVSQLVRYDSFLEEFL | inactive |
| FGSPYWLAYIV | inactive |
| FGTDDEDVKCNVMTALCRIW | inactive |
| FGTLSQVHIH | inactive |
| FGTSSEF | inactive |
| FGVCSLFESCIVSFNIVRRL | inactive |
| FGVQVWLMLFLGNVYIWMVM | inactive |
| FGVVDYARRSWGYGSCGGHV | inactive |
| FHIGLSITVT | inactive |
| FHLYNVW | inactive |
| FHWYFLCLAFLG | 0.398 ± 0.3 |
| FICERMRRIVESNVDLLGFY | -0.359 ± 0.32 |
| FICILIISKGSIVPFFLRHR | inactive |
| FIGQGTNWYPYSVGANVSHH | -0.241 ± 0.8 |
| FILRLVEVSNFCTRYRNAYS | inactive |
| FILSAGSLHQLGRLVES | inactive |
| FIMMRIMSFPISHVCV | 0.708 ± 0.27 |
| FIRARLLRHHTLARNAYVLR | inactive |
| FISDRGGLVRMNYPPRHW | inactive |
| FISGVYMKCIGCSS | inactive |
| FISINTPPCLCMS | inactive |
| FITTCRILWVRCTGIVNDFL | inactive |
| FIWTFK | 1.35 ± 0.092 |
| FIYAC | inactive |

| Substance | amyloid nucleation score |
| --- | --- |
| FKAMLD | inactive |
| FKIEDQYNLMHRVFLVSNGG | inactive |
| FKIMD | inactive |
| FKKSLYVLSDFSVLYSMCSW | inactive |
| FKSLHTGVQRNTLCARSRTF | inactive |
| FKVAH | inactive |
| FKVNGFSATILIFKQV | inactive |
| FKWQEW | -0.943 ± 1.3 |
| FLERISFYIKLVSRSYGGTS | inactive |
| FLFFTEAGYM | inactive |
| FLFWILDALLLQVFQLSPHK | inactive |
| FLHPLSLDSNFLNSVCHFKK | inactive |
| FLIIDAVLEPVGLLFFTKFS | inactive |
| FLIPQGERSVLCMGCYFLYA | 1.85 ± 0.098 |
| FLLCHYCFFVDTPGRIFYYS | 0.724 ± 0.18 |
| FLLFFAKWCLY | inactive |
| FLLNQIIGQLKHHLFVVSVN | inactive |
| FLMKLWM | 1.66 ± 0.08 |
| FLMRCISLGGTGANFLLELS | inactive |
| FLPQFDYVQIMVPCYCLEVV | inactive |
| FLRFSAVDVSNGGNSMLL | inactive |
| FLTHVHQINADAFYAIL | 1.84 ± 0.11 |
| FLVGPPNL | inactive |
| FLYRDSSCRLSLM | inactive |

| Substance | amyloid nucleation score |
| --- | --- |
| FLYYIPWDYL | inactive |
| FMFLVFDC | inactive |
| FMGTGHSFGSQNPVSLILKS | inactive |
| FMGVT | inactive |
| FMHPADVEHGTREYLNVTGG | inactive |
| FMKILQVTDWDPGSVYNSSN | inactive |
| FMNCWQRAGVRSLGVYGNSA | 0.13 ± 0.45 |
| FMNKLGDFNLP | inactive |
| FMSFLICNRILWSGG | inactive |
| FMTVQLLH | 1.85 ± 0.1 |
| FMYILWRVSKKLFIALMWFR | inactive |
| FNFNILTIWIDLLAQLGMT | 1.85 ± 0.1 |
| FNGRLVLHHRTVI | inactive |
| FNHPNQGVCIHCISGKGWTR | inactive |
| FNLGRVMFLRSLRWCQGLLV | inactive |
| FNQAHSVTTDREAYRGRCQG | inactive |
| FNSYGKLWYFESKDRVYACD | -0.462 ± 1.4 |
| FNTIAIDTSLVGSNYAGATK | inactive |
| FNVFLSLATGISDGYYMLTA | inactive |
| FPDIDLLLLWTHQRDRRSWF | 0.018 ± 0.45 |
| FPGNLSLNGVIHMFLYDKLW | inactive |
| FPRHCKPRCL | inactive |
| FQGSNCP | inactive |

From the supplement of paper PMC12042874
